Measurements: article doi:10.1101/2022.11.07.515236 (bioRxiv, 2022)

T1: Fc chimera of recombinant human type II BMP receptor BMPRII (human, UniProt Q13873)
T1 sequence: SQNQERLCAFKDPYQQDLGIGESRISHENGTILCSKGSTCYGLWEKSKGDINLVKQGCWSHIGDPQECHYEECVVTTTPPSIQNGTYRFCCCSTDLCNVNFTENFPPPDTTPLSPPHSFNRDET

B1: recombinant human GDF3 (ligand)
chain: AAIPVPKLSCKNLCHRHQLFINFRDLGWHKWIIAPKGFMANYCHGECPFSLTISLNSSNYAFMQALMHAVDPEIPQAVCIPTKLSPISMLYQDNNDNVILRHYEDMVVDECGCG
B2: recombinant mouse GDF3 (ligand)
chain: AAISVPKGFCRNFCHRHQLFINFQDLGWHKWVIAPKGFMANYCHGECPFSMTTYLNSSNYAFMQALMHMADPKVPKAVCVPTKLSPISMLYQDSDKNVILRHYEDMVVDECGCG

Legend:
[1] = biological target: T1, Fc chimera of recombinant human type II …; experiment: SPR
[2] = biological target: T2, recombinant human ACTRIIA-Fc (human, UniProt P27037); experiment: SPR
[3] = biological target: T1, Fc chimera of recombinant human type II …; experiment: BLI
[4] = biological target: T2, recombinant human ACTRIIA-Fc; experiment: BLI

T2 sequence (P27037 20-135): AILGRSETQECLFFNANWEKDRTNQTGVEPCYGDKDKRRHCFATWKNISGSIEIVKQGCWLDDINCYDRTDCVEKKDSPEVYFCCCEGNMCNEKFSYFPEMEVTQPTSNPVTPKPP

Binder | binding result [1] | binding result [2] | binding result [3] | binding result [4]
B1 | binds | binds |  | 
B2 |  |  | binds | binds
